This experiment deals with T1, CEACAM8 (human, UniProt P31997 35-320, limits assumed).
T1 sequence (looked up): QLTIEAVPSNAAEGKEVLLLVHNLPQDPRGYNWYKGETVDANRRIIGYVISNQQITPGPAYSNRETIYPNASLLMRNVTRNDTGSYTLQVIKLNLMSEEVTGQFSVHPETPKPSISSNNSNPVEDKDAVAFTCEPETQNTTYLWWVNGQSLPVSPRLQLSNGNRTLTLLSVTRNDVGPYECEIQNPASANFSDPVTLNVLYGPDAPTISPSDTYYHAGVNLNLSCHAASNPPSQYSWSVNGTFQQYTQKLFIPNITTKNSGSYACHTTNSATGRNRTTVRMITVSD
In words: in vitro assays using human tumor cell lines (method not detailed).

B1: NEO-201 humanized IgG1 monoclonal antibody (antibody, V domains shown)
VH: QVQLVQSGAEVKKPGASVKVSCKASGYTFTDYAMHWVRQAPGQRLEWMGLISTYSGDTKYNQNFQGRVTMTVDKSASTAYMELSSLRSEDTAVYYCARGDYSGSRYWFAYWGQGTLVTVSS
VL: DIQMTQSPSSLSASVGDRVTITCQASENIYGALNWYQRKPGKSPKLLIYGASNLATGMPSRFSGSGSGTDYTFTISSLQPEDIATYYCQQVLSSPYTFGGGTKLEIKR
notes: also called h16C3; H16C3-Abb*
As to B1, the binding result is reported as “no binding”.

These data come from patent publication US20240101702A1 (PRECISION BIOLOGICS, published 2024).
